# In patent US6703362 (CYTOGEN, dated 2004):
# T1: hPEPT1 receptor domain (human PEPT1, amino acid residues 391-571), His-tag fusion protein (human, UniProt P46059 391-571)
# T1 construct: purified under denaturing conditions; also called recombinant hPEPT1; not shown: poly-histidine tag (pET vector) at the NH2-terminal end
# T1 sequence: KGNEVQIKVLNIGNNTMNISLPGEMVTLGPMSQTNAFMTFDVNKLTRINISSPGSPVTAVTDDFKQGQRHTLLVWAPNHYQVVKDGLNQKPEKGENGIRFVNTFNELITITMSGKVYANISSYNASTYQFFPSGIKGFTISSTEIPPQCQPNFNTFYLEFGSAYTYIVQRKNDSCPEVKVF
# B1: PAX17 (peptide)
# peptide: SQVDSFRNSFRWYEPSRALCHGCGKRDTSTTRIHNSPSDSYPTRAETVESCLAKPHTENSFTNVWKDDKTLDRYANYEGCLWNATGVVVCTGDETQCYGTWVPIGLAIPENEGGGSEGGGSEGGGSEGGGTKPPEYGDTPIPGYTYINPLDGTYPPGTEQNPANPNPSLEESQPLNTFMFQNNRFRNRQGALTVYTGTVTQGTDPVKTYYQYTPVSSKAMYDAYWNGKFRDCAFHSGFNEDPFVCEYQGQSSDLPQPPVNAGGGSGGGSGGGSEGGGSEGGGSEGGGSEGGGSGGGSGSGDFDYEKMANANKGAMTENADENALQSDAKGKLDSVATDYGAAIDGFIGDVSGLANGNGATGDFAGSNSQMAQVGDGDNSPLMNNFRQYLPSLPQSVECRPFVFSAGKPYEFSIDCDKINLFRGVFAFLLYVATFMYVFSTFANILRNKES
# notes: Assayed as M13 phage clone displaying the insert
# B2: PAX9 (peptide)
# peptide: RWPSVGYKGNGSDTIDVHSNDASTKRSLIYNHRRPLFPAETVESCLAKPHTENSFTNVWKDDKTLDRYANYEGCLWNATGVVVCTGDETQCYGTWVPIGLAIPENEGGGSEGGGSEGGGSEGGGTKPPEYGDTPIPGYTYINPLDGTYPPGTEQNPANPNPSLEESQPLNTFMFQNNRFRNRQGALTVYTGTVTQGTDPVKTYYQYTPVSSKAMYDAYWNGKFRDCAFHSGFNEDPFVCEYQGQSSDLPQPPVNAGGGSGGGSGGGSEGGGSEGGGSEGGGSEGGGSGGGSGSGDFDYEKMANANKGAMTENADENALQSDAKGKLDSVATDYGAAIDGFIGDVSGLANGNGATGDFAGSNSQMAQVGDGDNSPLMNNFRQYLPSLPQSVECRPFVFSAGKPYEFSIDCDKINLFRGVFAFLLYVATFMYVFSTFANILRNKES
# notes: as for B1
# B3: PAX35 (peptide)
# peptide: RSITDGGINEVDLSSVSNVLENANSHRAYRKHRPTLKRPAETVESCLAKPHTENSFTNVWKDDKTLDRYANYEGCLWNATGVVVCTGDETQCYGTWVPIGLAIPENEGGGSEGGGSEGGGSEGGGTKPPEYGDTPIPGYTYINPLDGTYPPGTEQNPANPNPSLEESQPLNTFMFQNNRFRNRQGALTVYTGTVTQGTDPVKTYYQYTPVSSKAMYDAYWNGKFRDCAFHSGFNEDPFVCEYQGQSSDLPQPPVNAGGGSGGGSGGGSEGGGSEGGGSEGGGSEGGGSGGGSGSGDFDYEKMANANKGAMTENADENALQSDAKGKLDSVATDYGAAIDGFIGDVSGLANGNGATGDFAGSNSQMAQVGDGDNSPLMNNFRQYLPSLPQSVECRPFVFSAGKPYEFSIDCDKINLFRGVFAFLLYVATFMYVFSTFANILRNKES
# notes: as for B1
# B4: PAX40 (peptide)
# peptide: RASTQGGRGVAPEFGASVLGRGCGSATYYTNSTSCKDAMGHNYSAETVESCLAKPHTENSFTNVWKDDKTLDRYANYEGCLWNATGVVVCTGDETQCYGTWVPIGLAIPENEGGGSEGGGSEGGGSEGGGTKPPEYGDTPIPGYTYINPLDGTYPPGTEQNPANPNPSLEESQPLNTFMFQNNRFRNRQGALTVYTGTVTQGTDPVKTYYQYTPVSSKAMYDAYWNGKFRDCAFHSGFNEDPFVCEYQGQSSDLPQPPVNAGGGSGGGSGGGSEGGGSEGGGSEGGGSEGGGSGGGSGSGDFDYEKMANANKGAMTENADENALQSDAKGKLDSVATDYGAAIDGFIGDVSGLANGNGATGDFAGSNSQMAQVGDGDNSPLMNNFRQYLPSLPQSVECRPFVFSAGKPYEFSIDCDKINLFRGVFAFLLYVATFMYVFSTFANILRNKES
# notes: as for B1
# B5: 5PAX7 (peptide)
# peptide: RWGWERSPSDYDSDMDLGARRYATRTHRAPPRVLKAPLPAETVESCLAKPHTENSFTNVWKDDKTLDRYANYEGCLWNATGVVVCTGDETQCYGTWVPIGLAIPENEGGGSEGGGSEGGGSEGGGTKPPEYGDTPIPGYTYINPLDGTYPPGTEQNPANPNPSLEESQPLNTFMFQNNRFRNRQGALTVYTGTVTQGTDPVKTYYQYTPVSSKAMYDAYWNGKFRDCAFHSGFNEDPFVCEYQGQSSDLPQPPVNAGGGSGGGSGGGSEGGGSEGGGSEGGGSEGGGSGGGSGSGDFDYEKMANANKGAMTENADENALQSDAKGKLDSVATDYGAAIDGFIGDVSGLANGNGATGDFAGSNSQMAQVGDGDNSPLMNNFRQYLPSLPQSVECRPFVFSAGKPYEFSIDCDKINLFRGVFAFLLYVATFMYVFSTFANILRNKES
# notes: as for B1
# B6: PAX18 (peptide)
# peptide: SFLRFQSPRFEDYSRTISRLRNATNPSNVSDAHNNRALAAETVESCLAKPHTENSFTNVWKDDKTLDRYANYEGCLWNATGVVVCTGDETQCYGTWVPIGLAIPENEGGGSEGGGSEGGGSEGGGTKPPEYGDTPIPGYTYINPLDGTYPPGTEQNPANPNPSLEESQPLNTFMFQNNRFRNRQGALTVYTGTVTQGTDPVKTYYQYTPVSSKAMYDAYWNGKFRDCAFHSGFNEDPFVCEYQGQSSDLPQPPVNAGGGSGGGSGGGSEGGGSEGGGSEGGGSEGGGSGGGSGSGDFDYEKMANANKGAMTENADENALQSDAKGKLDSVATDYGAAIDGFIGDVSGLANGNGATGDFAGSNSQMAQVGDGDNSPLMNNFRQYLPSLPQSVECRPFVFSAGKPYEFSIDCDKINLFRGVFAFLLYVATFMYVFSTFANILRNKES
# notes: as for B1
# B7: PAX45 (peptide)
# peptide: SFQVYPDHGLERHALDGTGPLYAMPGRWIRARPQNRDRQAETVESCLAKPHTENSFTNVWKDDKTLDRYANYEGCLWNATGVVVCTGDETQCYGTWVPIGLAIPENEGGGSEGGGSEGGGSEGGGTKPPEYGDTPIPGYTYINPLDGTYPPGTEQNPANPNPSLEESQPLNTFMFQNNRFRNRQGALTVYTGTVTQGTDPVKTYYQYTPVSSKAMYDAYWNGKFRDCAFHSGFNEDPFVCEYQGQSSDLPQPPVNAGGGSGGGSGGGSEGGGSEGGGSEGGGSEGGGSGGGSGSGDFDYEKMANANKGAMTENADENALQSDAKGKLDSVATDYGAAIDGFIGDVSGLANGNGATGDFAGSNSQMAQVGDGDNSPLMNNFRQYLPSLPQSVECRPFVFSAGKPYEFSIDCDKINLFRGVFAFLLYVATFMYVFSTFANILRNKES
# notes: as for B1
# B8: 5PAX3 (peptide)
# peptide: RPKNVADAYSSQDGAAAEETSHASNAARKSPKHKPLRRPAETVESCLAKPHTENSFTNVWKDDKTLDRYANYEGCLWNATGVVVCTGDETQCYGTWVPIGLAIPENEGGGSEGGGSEGGGSEGGGTKPPEYGDTPIPGYTYINPLDGTYPPGTEQNPANPNPSLEESQPLNTFMFQNNRFRNRQGALTVYTGTVTQGTDPVKTYYQYTPVSSKAMYDAYWNGKFRDCAFHSGFNEDPFVCEYQGQSSDLPQPPVNAGGGSGGGSGGGSEGGGSEGGGSEGGGSEGGGSGGGSGSGDFDYEKMANANKGAMTENADENALQSDAKGKLDSVATDYGAAIDGFIGDVSGLANGNGATGDFAGSNSQMAQVGDGDNSPLMNNFRQYLPSLPQSVECRPFVFSAGKPYEFSIDCDKINLFRGVFAFLLYVATFMYVFSTFANILRNKES
# notes: as for B1
# B9: PAX43 (peptide)
# peptide: RWCEKHKFTAARCSAGAGFERDASRPPQPAHRDNTNRNAAETVESCLAKPHTENSFTNVWKDDKTLDRYANYEGCLWNATGVVVCTGDETQCYGTWVPIGLAIPENEGGGSEGGGSEGGGSEGGGTKPPEYGDTPIPGYTYINPLDGTYPPGTEQNPANPNPSLEESQPLNTFMFQNNRFRNRQGALTVYTGTVTQGTDPVKTYYQYTPVSSKAMYDAYWNGKFRDCAFHSGFNEDPFVCEYQGQSSDLPQPPVNAGGGSGGGSGGGSEGGGSEGGGSEGGGSEGGGSGGGSGSGDFDYEKMANANKGAMTENADENALQSDAKGKLDSVATDYGAAIDGFIGDVSGLANGNGATGDFAGSNSQMAQVGDGDNSPLMNNFRQYLPSLPQSVECRPFVFSAGKPYEFSIDCDKINLFRGVFAFLLYVATFMYVFSTFANILRNKES
# notes: as for B1
# B10: 5PAX12 (peptide)
# peptide: RGWKCEGSQAAYGDKDIGRSRGCGSITKNNTNHAHPSHGAVAKIAETVESCLAKPHTENSFTNVWKDDKTLDRYANYEGCLWNATGVVVCTGDETQCYGTWVPIGLAIPENEGGGSEGGGSEGGGSEGGGTKPPEYGDTPIPGYTYINPLDGTYPPGTEQNPANPNPSLEESQPLNTFMFQNNRFRNRQGALTVYTGTVTQGTDPVKTYYQYTPVSSKAMYDAYWNGKFRDCAFHSGFNEDPFVCEYQGQSSDLPQPPVNAGGGSGGGSGGGSEGGGSEGGGSEGGGSEGGGSGGGSGSGDFDYEKMANANKGAMTENADENALQSDAKGKLDSVATDYGAAIDGFIGDVSGLANGNGATGDFAGSNSQMAQVGDGDNSPLMNNFRQYLPSLPQSVECRPFVFSAGKPYEFSIDCDKINLFRGVFAFLLYVATFMYVFSTFANILRNKES
# notes: as for B1
# B11: PAX46 (peptide)
# peptide: SRCTDNEQCPDTGTRSRSVSNARYFSSRLLKTHAPHRPAETVESCLAKPHTENSFTNVWKDDKTLDRYANYEGCLWNATGVVVCTGDETQCYGTWVPIGLAIPENEGGGSEGGGSEGGGSEGGGTKPPEYGDTPIPGYTYINPLDGTYPPGTEQNPANPNPSLEESQPLNTFMFQNNRFRNRQGALTVYTGTVTQGTDPVKTYYQYTPVSSKAMYDAYWNGKFRDCAFHSGFNEDPFVCEYQGQSSDLPQPPVNAGGGSGGGSGGGSEGGGSEGGGSEGGGSEGGGSGGGSGSGDFDYEKMANANKGAMTENADENALQSDAKGKLDSVATDYGAAIDGFIGDVSGLANGNGATGDFAGSNSQMAQVGDGDNSPLMNNFRQYLPSLPQSVECRPFVFSAGKPYEFSIDCDKINLFRGVFAFLLYVATFMYVFSTFANILRNKES
# notes: as for B1
# B12: PAX38 (peptide)
# peptide: SSKVSSPRDPTVPRKGGNVDYGCGHRSSARMPTSALSSITKCYTAETVESCLAKPHTENSFTNVWKDDKTLDRYANYEGCLWNATGVVVCTGDETQCYGTWVPIGLAIPENEGGGSEGGGSEGGGSEGGGTKPPEYGDTPIPGYTYINPLDGTYPPGTEQNPANPNPSLEESQPLNTFMFQNNRFRNRQGALTVYTGTVTQGTDPVKTYYQYTPVSSKAMYDAYWNGKFRDCAFHSGFNEDPFVCEYQGQSSDLPQPPVNAGGGSGGGSGGGSEGGGSEGGGSEGGGSEGGGSGGGSGSGDFDYEKMANANKGAMTENADENALQSDAKGKLDSVATDYGAAIDGFIGDVSGLANGNGATGDFAGSNSQMAQVGDGDNSPLMNNFRQYLPSLPQSVECRPFVFSAGKPYEFSIDCDKINLFRGVFAFLLYVATFMYVFSTFANILRNKES
# notes: as for B1
# Biological target: T1, hPEPT1 receptor domain (human PEPT1, …)
# Experiment: phage ELISA, plate coated with hPEPT1 domain
# Protocol: 6.6. Receptor ELISA Procedure 96 well plates were coated overnight with GIT receptor, BSA and, optionally, IDE (insulin degrading enzyme, an irrelevant His-fusion protein)or hTF. The plates were blocked for one hour with 0.5% BSA-PBS. After clarification, the amplified phage were diluted 1:100 in […] plus 0.05% Tween 20 in PBS and added to the plates. Following incubation of the plates on a rotator for 1 to 2 hours, the plates were washed 5 times with 1% BSA plus 0.05% Tween 20 in PBS. […] After the plates were washed 5 times, as described above, TMB substrate was added to the wells. The plates were read at 650 nm absorbance.
row,Binder,OD [OD]
1,B1,0.514
2,B2,0.312
3,B3,0.474
4,B4,0.461
5,B5,0.171
6,B6,0.416
7,B7,0.419
8,B8,0.173
9,B9,0.345
10,B10,0.227
11,B11,0.429
12,B12,0.292
